According to article PMC9513282:
HiLyteFluor 488 = N-terminal fluorophore; QXL 520 = dark quencher

Experiments:
[1] = target: AMUC_1438 FL construct (Akkermansia muciniphila) (UniProt B2UKY7)
[2] = target: AMUC_1438 CAT construct (residues 41-427) (Akkermansia muciniphila) (UniProt B2UKY7)

KM of hydrolysis of the IgA1FRET O-glycopeptide (FRET dequenching, steady-state kinetics, Michaelis-Menten fit; 1 μM enzyme, 0 to 1000 μM substrate, 20 mM Tris-HCl pH 7.0, 100 μM zinc chloride) [1]: 122 μM
KM of hydrolysis of the IgA1FRET O-glycopeptide (FRET dequenching, steady-state kinetics, Michaelis-Menten fit; 1 μM enzyme, 0 to 1000 μM substrate, 20 mM Tris-HCl pH 7.0, 100 μM zinc chloride) [2]: 300 μM
Binder: {HiLyteFluor 488}-TPSPSTPPTK-{QXL 520} (not fully specified (residue 5); printed as TPSP**S**TPPTK) [IgA1FRET, custom FRET O-glycopeptide substrate based on the IgA1 hinge region]
